Assay [1] has as its target T1, kinetocore associated 2 (KNTC2), endogenous protein of LC319 lung-cancer cells (human, UniProt O14777 1-642).
T1 construct: Endogenous protein in lysates of the human lung-cancer cell line LC319; Seen as a 75-kDa band and identified by MALDI-TOF mass spectrometry; also called endogenous KNTC2
T1 sequence: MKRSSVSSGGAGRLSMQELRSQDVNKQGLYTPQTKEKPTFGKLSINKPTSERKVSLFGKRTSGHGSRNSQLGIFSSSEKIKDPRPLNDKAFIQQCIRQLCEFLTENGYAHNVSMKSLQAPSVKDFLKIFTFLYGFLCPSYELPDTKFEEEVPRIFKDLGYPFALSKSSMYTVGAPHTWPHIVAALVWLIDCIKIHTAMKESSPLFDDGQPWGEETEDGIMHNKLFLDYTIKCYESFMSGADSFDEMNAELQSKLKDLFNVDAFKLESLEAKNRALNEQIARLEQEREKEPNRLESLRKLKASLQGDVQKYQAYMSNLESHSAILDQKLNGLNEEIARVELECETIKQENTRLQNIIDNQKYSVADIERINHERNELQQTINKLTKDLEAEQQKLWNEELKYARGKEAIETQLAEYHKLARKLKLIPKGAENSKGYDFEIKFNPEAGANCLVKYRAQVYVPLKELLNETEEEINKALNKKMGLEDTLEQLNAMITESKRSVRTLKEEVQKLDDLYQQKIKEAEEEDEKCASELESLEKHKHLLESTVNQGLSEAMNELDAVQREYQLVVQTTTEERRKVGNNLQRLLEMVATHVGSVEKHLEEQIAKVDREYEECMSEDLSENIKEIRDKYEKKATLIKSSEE
Nature of the assay: anti-Flag immunoprecipitation from transfected LC319 cells, immunoblot for KNTC2 (FIG. 2C). As to the method:
(§1) Cell extracts from lung-cancer cell line LC319, transfected with plasmids expressing eleven deletion-constructs of CDCA1 were pre-cleared by incubation at 4° C. for 1 hour with 100 μl of protein G-agarose beads in final volumes of 2 ml of immunoprecipitation buffer (0.5% NP-40, 50 mM Tris-HCl, 150 mM NaCl) in the presence of proteinase inhibitor. After centrifugation at 1,000 rpm for 5 min at 4° C., the supernatants were incubated at 4° C. with anti-FLAG M2 agarose for 2 hours. After the beads were collected from each sample by centrifugation at 5,000 rpm for 2 min and washed six times with 1 ml of immunoprecipitation buffer, the washed beads were re-suspended in 50 μl of Laemmli sample buffer and boiled for 5 min before the proteins were separated on 10% SDS PAGE gels. Immunoblot was performed using KNTC2 polyclonal antibody (Abcom, Inc.) and anti-FLAG M2 monoclonal antibody respectively (Sigma-Aldrich Co.).

The target of assay [2] is T1, kinetocore associated 2 (KNTC2), …. Nature of the assay: anti-Flag immunoprecipitation from transfected LC319 cells, immunoblot for KNTC2 (FIG. 2D). The method, then: as §1
Assay [3] shares this target. Nature of the assay: anti-Flag immunoprecipitation (FIG. 2C); also immunoprecipitation with anti-KNTC2 polyclonal antibody (FIG. 5A). The method, then:
as §1

For assay [4] the target is unchanged. Nature of the assay: immunoprecipitation with KNTC2 polyclonal antibody from LC319 cells transfected with pCAGGSn3Fc-CDCA1, anti-FLAG M2 immunoblot. The method, then:
(f) Identification of CDCA1-associated Proteins: Cell extracts from lung-cancer cell line LC319 were pre-cleared by incubation at 4° C. for 1 hour with 50 μl of protein A and G-agarose beads, in final volumes of 2 ml of immunoprecipitation buffer (0.5% NP-40, 50 mM Tris-HCl, 150 mM NaCl) in the presence of proteinase inhibitor. After centrifugation at 1,000 rpm for 5 min at 4° C., the supernatants were incubated at 4° C. with anti-CDCA1 polyclonal antibody, anti-KNTC2 polyclonal antibody, or normal rabbit IgG for 2 hours. After incubation at 4° C. for 1 hour with 50 μl of protein A and G-agarose beads, the beads were collected from each sample by centrifugation at 5,000 rpm for 2 min and washed six times with 1 ml of immunoprecipitation buffer, and the washed beads were re-suspended in 50 μl of Laemmli sample buffer and boiled for 5 min before the proteins were separated on 5-10% SDS PAGE gels (BIO RAD). After electrophoresis, the gels were stained with silver. […] The nucleotide sequence of each cDNA clone was determined with an ABI Prism 3700 DNA sequencer (Applied Biosystems, Foster City, Calif.), using T3, T7, or synthetic oligonucleotide primers according to the manufacturer's instructions. […]

B1: CDCA1 149-306 deletion construct with C-terminal FLAG sequence (other)
chain: ADKMQQLNAAHQEALMKLERLDSVPVEEQEEFKQLSDGIQELQQSLNQDFHQKTIVLQEGNSQKKSNISEKTKRLNELKLLVVSLKEIQESLKTKIVDSPEKLKNYKEKMKDTVQKLKNARQEVVEKYEIYGDSVDCLPSCQLEVQLYQKKIQDLSDN
notes: Expressed by transfection in LC319 cells; also called control; not shown: C-terminal FLAG tag of the pCAGGS vector
For the molecule B1, the binding result in assay [1] is given as “no binding”.

B2: CDCA1 319-367 deletion construct with C-terminal FLAG sequence (other)
chain: NLEDQIESDESELKKLKTEENSFKRLMIVKKEKLATAQFKINKKHEDVK
notes: Expressed by transfection in LC319 cells; not shown: C-terminal FLAG tag of the pCAGGS vector
Turning to B2, the binding result in assay [2] is “no binding”.

B3: CDCA1 200-464 deletion construct with C-terminal FLAG sequence (other)
chain: QKTIVLQEGNSQKKSNISEKTKRLNELKLLVVSLKEIQESLKTKIVDSPEKLKNYKEKMKDTVQKLKNARQEVVEKYEIYGDSVDCLPSCQLEVQLYQKKIQDLSDNREKLASILKESLNLEDQIESDESELKKLKTEENSFKRLMIVKKEKLATAQFKINKKHEDVKQYKRTVIEDCNKVQEKRGAVYERVTTINQEIQKIKLGIQQLKDAAEREKLKSQEIFLNLKTALEKYHDGIEKAAEDSYAKIDEKTAELKRKMFKMST
notes: Expressed by transfection in LC319 cells; also called dominant-negative fragment of CDCA1; not shown: C-terminal FLAG tag of the pCAGGS vector
Turning to B3, the binding result in assay [3] is “binds”.

B4: CDCA1 277-367 deletion construct with C-terminal FLAG sequence (other)
chain: EIYGDSVDCLPSCQLEVQLYQKKIQDLSDNREKLASILKESLNLEDQIESDESELKKLKTEENSFKRLMIVKKEKLATAQFKINKKHEDVK
notes: as for B2
For the molecule B4, the binding result in assay [2] is “no binding”.

B5: CDCA1 1-464 (full length), exogenous, expressed from pCAGGSn3Fc-CDCA1 in LC319 cells (other, not shown: small tags and cut ends)
chain: METLSFPRYNVAEIVIHIRNKILTGADGKNLTKNDLYPNPKPEVLHMIYMRALQIVYGIRLEHFYMMPVNSEVMYPHLMEGFLPFSNLVTHLDSFLPICRVNDFETADILCPKAKRTSRFLSGIINFIHFREACRETYMEFLWQYKSSADKMQQLNAAHQEALMKLERLDSVPVEEQEEFKQLSDGIQELQQSLNQDFHQKTIVLQEGNSQKKSNISEKTKRLNELKLLVVSLKEIQESLKTKIVDSPEKLKNYKEKMKDTVQKLKNARQEVVEKYEIYGDSVDCLPSCQLEVQLYQKKIQDLSDNREKLASILKESLNLEDQIESDESELKKLKTEENSFKRLMIVKKEKLATAQFKINKKHEDVKQYKRTVIEDCNKVQEKRGAVYERVTTINQEIQKIKLGIQQLKDAAEREKLKSQEIFLNLKTALEKYHDGIEKAAEDSYAKIDEKTAELKRKMFKMST
notes: It is treated as the same molecule here; also called exogenous CDCA1
Take B5: in assay [4], the binding result is given as “binds”.

B6: CDCA1 1-148 deletion construct with C-terminal FLAG sequence (other)
chain: METLSFPRYNVAEIVIHIRNKILTGADGKNLTKNDLYPNPKPEVLHMIYMRALQIVYGIRLEHFYMMPVNSEVMYPHLMEGFLPFSNLVTHLDSFLPICRVNDFETADILCPKAKRTSRFLSGIINFIHFREACRETYMEFLWQYKSS
notes: as for B2
B6: the binding result in assay [1] is listed as “no binding”.

(Values after patent US20090215683A1 (ONCOTHERAPY SCIENCE, published 2009).)
